Test results reported in paper PMC11915502.

Biological target: His6-HppX3 (Escherichia coli 3R (chicken), …, UniProt A0A0F7IE22 1-151)
Assay: EMSA

B1: Bio-PactX (actX promoter probe) (dsDNA)
DNA 1: AAGTAACTAGCGGTACTAGAGTCGACCTGCAGGCATATAAAATAAGCGCA
DNA 2: TGCGCTTATTTTATATGCCTGCAGGTCGACTCTAGTACCGCTAGTTACTT
binding result: binds
